# Patent US20130089875A1
# B1: digoxygenylated insulin-like-growth-factor-binding-protein-4 (protein)
# chain: DEAIHCPPCSEEKLARCRPPVGCEELVREPGCGCCATCALGLGMPCGVYTPRCGSGLRCYPPRGVEKPLHTLMHGQGVCMELAEIEAIQESLQPSDKDEGDHPNNSFSPCSAHDRRCLQKHFAKIRDRSTSGGKMKVNGAPREDARPVPQGSCQSELHRALERLAASQSRTHEDLYIIPIPNCDRNGNFHPKQCHPALDGQRGKCWCVDRKTGVKLPGGLEPKGELDCHQLADSFRE
# modifications: digoxigenin coupled through digoxigenin 3-O-methylcarbonyl-epsilon-aminocaproic acid-N-hydroxysuccinimide ester (amine-reactive), molar ratio 1:5; positions not given
# How the values were obtained:
# [1] = biological target: PEGylated insulin-like-growth-factor I (human) (UniProt P05019); assay: sandwich ELISA: PEG-IGF-I at 0.25 ng/ml captured by biotinylated anti-PEG antibody on Streptavidin plate; dig-IGFBP-4 at 100 ng/ml; anti-digoxygenin-HRP/ABTS; mean of three
# [2] = biological target: PEGylated insulin-like-growth-factor I (human) (UniProt P05019); assay: sandwich ELISA: PEG-IGF-I at 0.06 ng/ml captured by biotinylated anti-PEG antibody on Streptavidin plate; dig-IGFBP-4 at 100 ng/ml; anti-digoxygenin-HRP/ABTS; mean of three
# [3] = biological target: PEGylated insulin-like-growth-factor I (human) (UniProt P05019); assay: sandwich ELISA: PEG-IGF-I at 2.00 ng/ml captured by biotinylated anti-PEG antibody on Streptavidin plate; dig-IGFBP-4 at 100 ng/ml; anti-digoxygenin-HRP/ABTS; mean of three
# [4] = biological target: PEGylated insulin-like-growth-factor I (human) (UniProt P05019); assay: sandwich ELISA: PEG-IGF-I at 0.50 ng/ml captured by biotinylated anti-PEG antibody on Streptavidin plate; dig-IGFBP-4 at 100 ng/ml; anti-digoxygenin-HRP/ABTS
# [5] = biological target: PEGylated insulin-like-growth-factor I (human) (UniProt P05019); assay: sandwich ELISA: PEG-IGF-I at 1.00 ng/ml captured by biotinylated anti-PEG antibody on Streptavidin plate; dig-IGFBP-4 at 100 ng/ml; anti-digoxygenin-HRP/ABTS
# [6] = biological target: PEGylated insulin-like-growth-factor I (human) (UniProt P05019); assay: sandwich ELISA: PEG-IGF-I at 0.13 ng/ml captured by biotinylated anti-PEG antibody on Streptavidin plate; dig-IGFBP-4 at 100 ng/ml; anti-digoxygenin-HRP/ABTS
# [7] = biological target: PEGylated insulin-like-growth-factor I (human) (UniProt P05019); assay: sandwich ELISA: PEG-IGF-I at 0.03 ng/ml captured by biotinylated anti-PEG antibody on Streptavidin plate; dig-IGFBP-4 at 100 ng/ml; anti-digoxygenin-HRP/ABTS; mean of three
# [8] = biological target: PEGylated insulin-like-growth-factor I (human) (UniProt P05019); assay: sandwich ELISA: PEG-IGF-I at 0.13 ng/ml captured by biotinylated anti-PEG antibody on Streptavidin plate; dig-IGFBP-4 at 100 ng/ml; anti-digoxygenin-HRP/ABTS; mean of three
# [9] = biological target: PEGylated insulin-like-growth-factor I (human) (UniProt P05019); assay: sandwich ELISA: PEG-IGF-I at 2.00 ng/ml captured by biotinylated anti-PEG antibody on Streptavidin plate; dig-IGFBP-4 at 100 ng/ml; anti-digoxygenin-HRP/ABTS
# [10] = biological target: PEGylated insulin-like-growth-factor I (human) (UniProt P05019); assay: sandwich ELISA: PEG-IGF-I at 0.06 ng/ml captured by biotinylated anti-PEG antibody on Streptavidin plate; dig-IGFBP-4 at 100 ng/ml; anti-digoxygenin-HRP/ABTS
# [11] = biological target: PEGylated insulin-like-growth-factor I (human) (UniProt P05019); assay: sandwich ELISA: PEG-IGF-I at 0.25 ng/ml captured by biotinylated anti-PEG antibody on Streptavidin plate; dig-IGFBP-4 at 100 ng/ml; anti-digoxygenin-HRP/ABTS
# [12] = biological target: PEGylated insulin-like-growth-factor I (human) (UniProt P05019); assay: sandwich ELISA: PEG-IGF-I at 0.03 ng/ml captured by biotinylated anti-PEG antibody on Streptavidin plate; dig-IGFBP-4 at 100 ng/ml; anti-digoxygenin-HRP/ABTS
# [13] = biological target: PEGylated insulin-like-growth-factor I (human) (UniProt P05019); assay: sandwich ELISA: PEG-IGF-I at 1.00 ng/ml captured by biotinylated anti-PEG antibody on Streptavidin plate; dig-IGFBP-4 at 100 ng/ml; anti-digoxygenin-HRP/ABTS; mean of three
# [14] = biological target: PEGylated insulin-like-growth-factor I (human) (UniProt P05019); assay: sandwich ELISA: PEG-IGF-I at 0.50 ng/ml captured by biotinylated anti-PEG antibody on Streptavidin plate; dig-IGFBP-4 at 100 ng/ml; anti-digoxygenin-HRP/ABTS; mean of three
binder,measurement,setting,value
B1,"OD (absorption signal), mean",[1],0.752 OD
same,"OD (absorption signal), mean",[2],0.248 OD
same,"OD (absorption signal), mean",[3],2.03 OD
same,"OD (absorption signal), Sample No. 1",[4],1.21 OD
same,"OD (absorption signal), Sample No. 2",[4],1.25 OD
same,"OD (absorption signal), Sample No. 3",[4],1.22 OD
same,"OD (absorption signal), Sample No. 1",[5],1.66 OD
same,"OD (absorption signal), Sample No. 2",[5],1.66 OD
same,"OD (absorption signal), Sample No. 3",[5],1.73 OD
same,"OD (absorption signal), Sample No. 1",[6],0.439 OD
same,"OD (absorption signal), Sample No. 2",[6],0.428 OD
same,"OD (absorption signal), Sample No. 3",[6],0.436 OD
same,"OD (absorption signal), mean",[7],0.15 OD
same,"OD (absorption signal), mean",[8],0.434 OD
same,"OD (absorption signal), Sample No. 1",[9],2.04 OD
same,"OD (absorption signal), Sample No. 2",[9],2.06 OD
same,"OD (absorption signal), Sample No. 3",[9],2 OD
same,"OD (absorption signal), Sample No. 1",[10],0.25 OD
same,"OD (absorption signal), Sample No. 2",[10],0.252 OD
same,"OD (absorption signal), Sample No. 3",[10],0.243 OD
same,"OD (absorption signal), Sample No. 1",[11],0.757 OD
same,"OD (absorption signal), Sample No. 2",[11],0.734 OD
same,"OD (absorption signal), Sample No. 3",[11],0.766 OD
same,"OD (absorption signal), Sample No. 1",[12],0.141 OD
same,"OD (absorption signal), Sample No. 2",[12],0.159 OD
same,"OD (absorption signal), Sample No. 3",[12],0.149 OD
same,"OD (absorption signal), mean",[13],1.69 OD
same,"OD (absorption signal), mean",[14],1.23 OD
